According to US20170073386A1:

Key:
[1] = target: murine GITR expressed on cells (mouse) (UniProt O35714); assay: flow cytometry after treatment of mice with mGITRL-FP IgG2a; competitor DTA-1 as stain
[2] = target: murine GITR expressed on cells (mouse) (UniProt O35714); assay: cell-based or functional assay

murine GITR expressed on cells (mouse), sequence (O35714 20-228): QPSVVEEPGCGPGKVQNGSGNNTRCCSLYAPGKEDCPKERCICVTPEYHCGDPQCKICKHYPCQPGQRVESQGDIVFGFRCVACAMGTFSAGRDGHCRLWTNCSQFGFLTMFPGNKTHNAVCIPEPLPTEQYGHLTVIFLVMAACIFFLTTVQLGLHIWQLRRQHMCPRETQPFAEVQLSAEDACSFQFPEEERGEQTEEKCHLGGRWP

Row | reduction in GITR MFI (DTA-1 staining) on Tregs [1] | EC50, GITR-dependent NFκB reporter gene cell assay (Jurkat mGITR) [2] | fold potency against DTA-1, GITR-dependent NFκB reporter gene cell assay [2] | Substance
1 | > 75% | 0.05 nM | 50 fold | mGITRL-FP mIgG2a (Fc fusion)
2 | – | 2.31 nM | – | DTA-1 anti-GITR antibody
